Residue numbers refer to the chain shown, from its start.
T1: mouse IL-2Rβ (mouse) (UniProt P16297)
T1 sequence (looked up): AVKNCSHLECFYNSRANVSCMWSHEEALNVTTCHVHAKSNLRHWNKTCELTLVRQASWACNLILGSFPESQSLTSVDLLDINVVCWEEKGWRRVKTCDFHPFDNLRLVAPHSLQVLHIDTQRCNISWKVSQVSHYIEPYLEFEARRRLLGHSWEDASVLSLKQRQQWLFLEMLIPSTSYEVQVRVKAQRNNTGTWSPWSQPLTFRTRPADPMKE

B1: FJ1427_P035MP06F05 (VHH)
VHH: QVQLVESGGGLVQTGDSLRLSCAASGRSLDTTYIAWFRQAPGKERDFLAYISPRFSHTWYADSVKGRFTISRNIAKRTVDLEMNSLEPEDTAVYYCAAREHSGSTAWEHYDHWGQGTQVTVSS
B2: FJ1427 P035MP02H09 (VHH)
VHH: QLQLVESGGGLVQPGGSLRLSCAAAGRAIENYPVGWFRRAPGKEREFVAAITWISGSTLYADSVKGRFTISRDNAKNTVYLQMSSLKPEDTALYYCAAALKTITRGQNDYSYWGQGTQVTVSS
B3: FJ1427_P035MP02E10 (VHH)
VHH: B2 VHH with L2V, P14A
B4: FJ1427_P035MP02B08 (VHH)
VHH: B2 VHH with Q1E, L2V, P14A, A25S, R39Q
B5: FJ1427_P035MP02H08 (VHH)
VHH: EVQLVESGGGLVQAGDSLRISCAASGRIFSNYAMGWFRQAPGKETEFVAGITHLTSTTHYADSVKGRFTISRDNAKNTMHLQMNNLKPEDTALYYCAADRNIKITADWSYWGQGTQVTVAS
B6: FJ1427 P035MP02D11 (VHH)
VHH: B5 VHH with E1Q, V5Q
B7: FJ1427_P035MP03F08 (VHH)
VHH: EVQLVESGGGLVQTGGSLRLSCAASGGTFSRDAMAWFRQVPGKEREFVALISWSGATTNYADSVKGRFAISRDNGKNTVYLQMNRLKPADTAIYYCAADRRPMGSRSYFEPTEYDDWGQGTQVTVSS
B8: FJ1427_P035MP02C09 (VHH)
VHH: QVQLQESGGGLVQAGGSLRLSCVASGSVSSINGMAWYRQGADNQRVLVAAISRVGNTAYGDSVKGRFTISRQNARNTVYLQMNSLKPEDTAVYYCNADSWGGDDYWGQGTQVTVSS
B9: FJ1427 P035MP02A10 (VHH)
VHH: QLQLVESGGGLVQTGTSLRLSCAASGHTSRINAMGWFRQFPGKEREFVAAISRNGGSTVYVDSVKGRFTISRDNAKSTVYLQMNSLKPEDTAVYYCTATDAVGWTTRWMTADFGFWGQGTQVTVSS
B10: FJ1427 P035MP06E05 (VHH)
VHH: QVQLVESGGELVQGGASLRLSCAASGRTFSNANMAWFRQAPEKEREFVALITWSSGSTLYADSVKGRFTISRDNARKMVYLQMNSLKPEDTAVYYCAADGPPYSGTYYRYDTYDYWGQGTQVTVSS
B11: FJ1427 P035MP02E11 (VHH)
VHH: QVQLQESGGGLVQAGGSLRLSCAASGRTFSNYVMAWFRQAPGKEREFVGAITQTGRGTFYADSVEGRFTISRINDKNTVYLQMNSLKPEDTAVYYCSAPRSGRAGTRNQMDYEYWGQGTQVTVSS
B12: FJ1427_P035MP02B10 (VHH)
VHH: QVQLVESGGGLVEAGGSLRLSCAASGRAFNNFPMGWFRQAPGKEREFVAAITWISGSTLYADSVKGRFTISRDKSKNTVYLQMSGLKPEDTALYYCAAALKTITRGQHDYTYWGQGTQVTVSS
B13: FJ1427_P035MP02B09 (VHH)
VHH: EVQLVESGGGLVQAGGSLRLSCAASGRTFSTTEMGWFRQAPGKEREFVAAITWTGRGTMYAESVEGRFTISRENAKNMVYLQMNSLKPEDTAIYYCAAARRGRAAVRSEGGYDFWGQGTQVTVSS
B14: FJ1427_P035MP02G10 (VHH)
VHH: B13 VHH with E1Q
B15: FJ1427_P035MP02A11 (VHH)
VHH: B13 VHH with V121A
B16: FJ1427 P035MP02E06 (VHH)
VHH: QVQLVESGGGSVQPGGSLRLSCAASGFTFSNYAMSWVRQAPGKGLEWVASITGFGRGTDYADSVKGRFTISRDNAEDTLYLQMNSLKPEDTAVYYCAKYSSSTYYPPTPARGRDYRGQGTQVTVSS
B17: FJ1427 P035MP02C01 (VHH)
VHH: B16 VHH with S11L, R19G, S30D, A49S, F54A, D59H, E76K, D77N, R113T, Q118P
B18: FJ1427 P035MP02D10 (VHH)
VHH: EVQLVESGGGLVQAGGSLRLSCAASGRTFSSDAKAWFRQAPGKEREFVAAITWAGRGTDYADSVKDRFTITRDNAKNMVYLQMSSLKPEDTAVYYCALNPTGVIGPGFRNSNRYDYWGQGTQVTVAS
B19: FJ1427_P035MP03F12 (VHH)
VHH: EVQLVESGGGLVQAGGSLRLSCAASGSIFSINAMAWFRQVPGMERELVAAISRDGGASVYRDSVKGRFTISRDNSKNTVYLQMNTLKPEDTAIYVCAATRAIGWTARWITTDFDFWGQGTQVTVSS
B20: FJ1427_P035MP03C03 (VHH)
VHH: QVQLVESGGGLVQPGGSLRLSCAISGGTLDSYGIGWVRQAPGKQREGVSCMSRSDDRTYYADSVKGRFTISKDSAKNTVYLQMTSLKPEDTAVYYCAAVDAYGCSLVQPTTYDFWGLGTQVTVSS
B21: FJ1427_P035MP02A01 (VHH)
VHH: QVQLVESGGGLVQTGGSLRLSCVVSGSHFISDVMGWYRQVPGKQRELVADMADGGSAKYGDSVKGRFTILRDSVKNTVYLQMSSLNPEDTGVYYCKAGLWITGRHSDYWGQGTQVTVSS
B22: FJ1427_P035MP03F10 (VHH)
VHH: EVQLVESGGGLVQAGGSLRLSCAASGRDFSSYAMGWFRQAPGKEREFVVAITWTKRSTDFPDSVKGRFTISRDNAKNTVYLDMNSLKPEDTAVYYCASARGLPVTPLGDIIYWGEGTLVTVSS
B23: FJ1427 P035MP02G08 (VHH)
VHH: QVQLVESGGGLVQAGGSLRLSCTVSGDVFVRYTMAWFRQAPGKEREFVASVTDSGRTTEYVHSVRGRFTVSRDNAKNTVYLQMNNLKPEDTAVYYCAANTDYFRIRSLDANTWGQGTQVTVSS
B24: FJ1427_P035MP02C10 (VHH)
VHH: B23 VHH with S21A, T23A, V24L, E59D, H62A, R65Q, A75N, N85S, R104Q, A110R
B25: FJ1427_P035MP02F10 (VHH)
VHH: B23 VHH with Q1E, T23V, S50V, H62D, R65K, R104Q, L108V, A110N, T112A
B26: FJ1427 P035MP02D09 (VHH)
VHH: B23 VHH with S21A, T23A, V24L, E59D, H62A, R65Q, A75N, N85S, R104Q, A110R
B27: FJ1427_P035MP02G09 (VHH)
VHH: B23 VHH with S50L, H62D, R65K
B28: FJ1427_P035MP02F09 (VHH)
VHH: B23 VHH with Q1E, T23A, V24A, E59D, H62D, R65K, R104Q, D109E, A110F
B29: FJ1427 P035MP02H10 (VHH)
VHH: B23 VHH with Q1E, T23A, V24A, E59D, H62D, R65K, R104Q, R106K, A110R
B30: FJ1427 P035MP03A12 (VHH)
VHH: EVQLVESGGGLVQAGGSLRLSCAASGRTFSINAMGWFRQAPGKEREFVAAISRSGGSTVYVDGVKGRFTISRDNAKNTVYLQMNSLEPEDTAVYYCAATMAVGWTTRWRTADFDSWGQGTQVTVSS
B31: FJ1427 P035MP02C03 (VHH)
VHH: EVQLVESGGGLVQTGGSLRLSCAASGSQFINDVMGWYRQVPGKQRELVADMDDTGSTEYADSVKGRFTILRDSVKNTAYLQMSNLKPEDTGVYYCKAGLWIKGRHFDYWGQGTQVTVSS
B32: FJ1427 P035MP02D01 (VHH)
VHH: B31 VHH with E1Q, V5Q, E58K, F106S
B33: FJ1427_P035MP02B01 (VHH)
VHH: B31 VHH with E1Q, E58K

These binders were tested against T1, mouse IL-2Rβ (mouse) (assay: P.E. ELISA, coated protein).

Row | P.E. binding ELISA OD | Binder
1 | 0.047 OD450 nm | B1
2 | 0.049 OD450 nm | B2
3 | 0.047 OD450 nm | B3
4 | 0.048 OD450 nm | B4
5 | 0.049 OD450 nm | B5
6 | 0.047 OD450 nm | B6
7 | 0.049 OD450 nm | B7
8 | 0.047 OD450 nm | B8
9 | 0.047 OD450 nm | B9
10 | 0.046 OD450 nm | B10
11 | 0.048 OD450 nm | B11
12 | 0.047 OD450 nm | B12
13 | 0.047 OD450 nm | B13
14 | 0.048 OD450 nm | B14
15 | 0.047 OD450 nm | B15
16 | 0.048 OD450 nm | B16
17 | 0.047 OD450 nm | B17

Row | P.E. binding ELISA OD | Binder
18 | 0.047 OD450 nm | B18
19 | 0.048 OD450 nm | B19
20 | 0.048 OD450 nm | B20
21 | 0.048 OD450 nm | B21
22 | 0.048 OD450 nm | B22
23 | 0.055 OD450 nm | B23
24 | 0.05 OD450 nm | B24
25 | 0.051 OD450 nm | B25
26 | 0.056 OD450 nm | B26
27 | 0.066 OD450 nm | B27
28 | 0.051 OD450 nm | B28
29 | 0.051 OD450 nm | B29
30 | 0.05 OD450 nm | B30
31 | 0.047 OD450 nm | B31
32 | 0.048 OD450 nm | B32
33 | 0.048 OD450 nm | B33

— US20240409645A1
